For series [1], the target named is Recombinant human pro-MSP 689C (C672A, R689C, His tag), uncleaved single chain.
Series [2] has as its target Recombinant human pro-MSP 689R (C672A, His tag), uncleaved single chain.

Recombinant human pro-MSP 689R (C672A, His tag), uncleaved single chain, sequence (chain, as listed by the source C672A): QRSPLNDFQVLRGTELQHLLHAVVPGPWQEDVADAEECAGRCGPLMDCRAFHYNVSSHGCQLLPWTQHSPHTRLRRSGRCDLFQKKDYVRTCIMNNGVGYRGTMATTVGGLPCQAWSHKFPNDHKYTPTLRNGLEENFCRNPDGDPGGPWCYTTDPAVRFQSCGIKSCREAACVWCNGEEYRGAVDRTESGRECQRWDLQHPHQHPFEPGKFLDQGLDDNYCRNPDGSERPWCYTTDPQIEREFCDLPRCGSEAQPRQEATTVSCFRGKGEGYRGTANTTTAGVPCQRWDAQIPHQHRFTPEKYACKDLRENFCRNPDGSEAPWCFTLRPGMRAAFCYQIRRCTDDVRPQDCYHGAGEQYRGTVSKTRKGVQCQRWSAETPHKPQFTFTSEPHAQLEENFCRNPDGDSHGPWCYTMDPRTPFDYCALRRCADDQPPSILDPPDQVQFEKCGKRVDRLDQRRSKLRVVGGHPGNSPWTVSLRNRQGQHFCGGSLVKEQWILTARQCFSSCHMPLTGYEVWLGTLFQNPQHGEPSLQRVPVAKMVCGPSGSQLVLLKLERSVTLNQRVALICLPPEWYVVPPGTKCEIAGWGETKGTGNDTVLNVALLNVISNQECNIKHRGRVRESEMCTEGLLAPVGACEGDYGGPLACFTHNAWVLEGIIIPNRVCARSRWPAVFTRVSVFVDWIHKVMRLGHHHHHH
Recombinant human pro-MSP 689C (C672A, R689C, His tag), uncleaved single chain, sequence (chain, as listed by the source C672A R689C): as the sequence (chain, as listed by the source C672A) above, with R671C counted along it

B1: sHepsin (extracellular domain of human recombinant hepsin with C-terminal His-tag) (protein)
chain: RSDQEPLYPVQVSSADARLMVFDKTEGTWRLLCSSRSNARVAGLSCEEMGFLRALTHSELDVRTAGANGTSGFFCVDEGRLPHTQRLLEVISVCDCPRGRFLAAICQDCGRRKLPVDDDDKIVGGRDTSLGRWPWQVSLRYDGAHLCGGSLLSGDWVLTAAHCFPERNRVLSRWRVFAGAVAQASPHGLQLGVQAVVYHGGYLPFRDPNSEENSNDIALVHLSSPLPLTEYIQPVCLPAAGQALVDGKICTVTGWGNTQYYGQQAGVLQEARVPIISNDVCNGADFYGNQIKPKMFCAGYPEGGIDACQGDSGGPFVCEDSISRTPRWRLCGIVSWGTGCALAQKPGVYTKVSDFREWIFQAIKTHSEASGMVTQLHHHHHHHH
With B1, the “proteolytic cleavage of pro-MSP by hepsin, SDS-PAGE under reducing conditions, 1 h at 37 C” value in series [1] and in series [2] was “No obvious difference was observed in the concentration of hepsin required to completely cleave these variants over a 1-hour period” throughout.

These data come from patent US20160032013.
